18 molecules from patent publication US20210403601A1 (FAPON BIOTECH, published 2021) can be followed below.

The chains are these.
B1: Mutation 1-16 (antibody, V domains shown)
VH: QVQLQQPGAELVKPGASVRLSCQTSVNTFSTYYIYWVKQRPGEGLEWIGGINPTSGGPVFNEKFKSKATLTVDTSSSTAYMQLSSLTSVDSAVYYCTRSLVRRGYYFDYWGQGTALTVSS
VL: DIQMTQTTSSLSASLGDRVTISCRASQDIQNYINWYQQKPDGTIKLLIYYTSRLNSGVPSRFSGSGSGTDYSLTIANLEQEDIATYFCQQDDTLPITFGAGTKVELKR
notes: Mutation 1 background; CDRs built
B2: Mutation 1-24 (antibody, V domains shown)
VH: QVQLQQPGAELVKPGASVRLSCQTSVETFSTYYIYWVKQRPGEGLEWIGGVNPTSGGPVFNEKFKSKATLTVDTSSSTAYMQLSSLTSVDSAVYYCTRSLLRRGYYFDYWGQGTALTVSS
VL: DIQMTQTTSSLSASLGDRVTISCRASQDIQNYVNWYQQKPDGTIKLLIYYTSRLQSGLPSRFSGSGSGTDYSLTIANLEQEDIATYFCQQDDTLPVTFGAGTKVELKR
notes: as for B1
B3: Mutation 1-29 (antibody, V domains shown)
VH: QVQLQQPGAELVKPGASVRLSCQTSVETFTTYYIYWVKQRPGEGLEWIGGLNPTSNPVFNEKFKSKATLTVDTSSSTAYMQLSSLTSVDSAVYYCTRSIIRRGYYFDYWGQGTALTVSS
VL: DIQMTQTTSSLSASLGDRVTISCRASQDINNYINWYQQKPDGTIKLLIYYTSRLNSGIPSRFSGSGSGTDYSLTIANLEQEDIATYFCQQDDTIPVTFGAGTKVELKR
notes: as for B1
B4: Mutation 1-25 (antibody, V domains shown)
VH: QVQLQQPGAELVKPGASVRLSCQTSVETFTTYYIYWVKQRPGEGLEWIGGINPTSGGPVFNEKFKSKATLTVDTSSSTAYMQLSSLTSVDSAVYYCTRSLVRRGYYFDYWGQGTALTVSS
VL: DIQMTQTTSSLSASLGDRVTISCRASQDINNYVNWYQQKPDGTIKLLIYYTSRLHSGLPSRFSGSGSGTDYSLTIANLEQEDIATYFCQQDDTLPITFGAGTKVELKR
notes: as for B1
B5: Mutation 1-26 (antibody, V domains shown)
VH: QVQLQQPGAELVKPGASVRLSCQTSVNTFSTYYIYWVKQRPGEGLEWIGGLNPTSGGPVFNEKFKSKATLTVDTSSSTAYMQLSSLTSVDSAVYYCTRSLIRRGYYFDYWGQGTALTVSS
VL: DIQMTQTTSSLSASLGDRVTISCRASQDIQNYLNWYQQKPDGTIKLLIYYTSRLNSGLPSRFSGSGSGTDYSLTIANLEQEDIATYFCQQDDTLPLTFGAGTKVELKR
notes: as for B1
B6: Mutation 1-40 (antibody, V domains shown)
VH: QVQLQQPGAELVKPGASVRLSCQTSVDTFSTYYIYWVKQRPGEGLEWIGGLNPTSGGPVFNEKFKSKATLTVDTSSSTAYMQLSSLTSVDSAVYYCTRSVVRRGYYFDYWGQGTALTVSS
VL: DIQMTQTTSSLSASLGDRVTISCRASQDIQNYINWYQQKPDGTIKLLIYYTSRLHSGVPSRFSGSGSGTDYSLTIANLEQEDIATYFCQQDDTVPITFGAGTKVELKR
notes: as for B1
B7: Mutation 1-34 (antibody, V domains shown)
VH: QVQLQQPGAELVKPGASVRLSCQTSVDTFSTYYIYWVKQRPGEGLEWIGGLNPTSGGPVFNEKFKSKATLTVDTSSSTAYMQLSSLTSVDSAVYYCTRSLVRRGYYFDYWGQGTALTVSS
VL: DIQMTQTTSSLSASLGDRVTISCRASQDIQNYINWYQQKPDGTIKLLIYYTSRLHSGLPSRFSGSGSGTDYSLTIANLEQEDIATYFCQQDDTLPITFGAGTKVELKR
notes: as for B1
B8: Mutation 1-50 (antibody, V domains shown)
VH: QVQLQQPGAELVKPGASVRLSCQTSVNTFSTYYIYWVKQRPGEGLEWIGGVNPTSGGPVFNEKFKSKATLTVDTSSSTAYMQLSSLTSVDSAVYYCTRSVIRRGYYFDYWGQGTALTVSS
VL: DIQMTQTTSSLSASLGDRVTISCRASQDIQNYLNWYQQKPDGTIKLLIYYTSRLQSGLPSRFSGSGSGTDYSLTIANLEQEDIATYFCQQDDTVPVTFGAGTKVELKR
notes: as for B1
B9: Mutation 1-21 (antibody, V domains shown)
VH: QVQLQQPGAELVKPGASVRLSCQTSVNTFSTYYIYWVKQRPGEGLEWIGGVNPTSGGPVFNEKFKSKATLTVDTSSSTAYMQLSSLTSVDSAVYYCTRSVLRRGYYFDYWGQGTALTVSS
VL: DIQMTQTTSSLSASLGDRVTISCRASQDINNYLNWYQQKPDGTIKLLIYYTSRLQSGVPSRFSGSGSGTDYSLTIANLEQEDIATYFCQQDDTVPVTFGAGTKVELKR
notes: as for B1
B10: Mutation 1-31 (antibody, V domains shown)
VH: QVQLQQPGAELVKPGASVRLSCQTSVNTFTTYYIYWVKQRPGEGLEWIGGLNPTSGGPVFNEKFKSKATLTVDTSSSTAYMQLSSLTSVDSAVYYCTRSVVRRGYYFDYWGQGTALTVSS
VL: DIQMTQTTSSLSASLGDRVTISCRASQDINNYVNWYQQKPDGTIKLLIYYTSRLHSGVPSRFSGSGSGTDYSLTIANLEQEDIATYFCQQDDTVPITFGAGTKVELKR
notes: as for B1
B11: Mutation 1-22 (antibody, V domains shown)
VH: QVQLQQPGAELVKPGASVRLSCQTSVNTFTTYYIYWVKQRPGEGLEWIGGINPTSGGPVFNEKFKSKATLTVDTSSSTAYMQLSSLTSVDSAVYYCTRSVVRRGYYFDYWGQGTALTVSS
VL: DIQMTQTTSSLSASLGDRVTISCRASQDIQNYINWYQQKPDGTIKLLIYYTSRLHSGVPSRFSGSGSGTDYSLTIANLEQEDIATYFCQQDDTVPITFGAGTKVELKR
notes: as for B1
B12: Mutation 1-23 (antibody, V domains shown)
VH: QVQLQQPGAELVKPGASVRLSCQTSVDTFSTYYIYWVKQRPGEGLEWIGGLNPTSGGPVFNEKFKSKATLTVDTSSSTAYMQLSSLTSVDSAVYYCTRSVIRRGYYFDYWGQGTALTVSS
VL: DIQMTQTTSSLSASLGDRVTISCRASQDINNYINWYQQKPDGTIKLLIYYTSRLNSGVPSRFSGSGSGTDYSLTIANLEQEDIATYFCQQDDTVPLTFGAGTKVELKR
notes: as for B1
B13: Mutation 1-32 (antibody, V domains shown)
VH: QVQLQQPGAELVKPGASVRLSCQTSVDTFSTYYIYWVKQRPGEGLEWIGGVNPTSGGPVFNEKFKSKATLTVDTSSSTAYMQLSSLTSVDSAVYYCTRSVIRRGYYFDYWGQGTALTVSS
VL: DIQMTQTTSSLSASLGDRVTISCRASQDIQNYLNWYQQKPDGTIKLLIYYTSRLNSGVPSRFSGSGSGTDYSLTIANLEQEDIATYFCQQDDTVPVTFGAGTKVELKR
notes: as for B1
B14: Mutation 1-52 (antibody, V domains shown)
VH: QVQLQQPGAELVKPGASVRLSCQTSVETFTTYYIYWVKQRPGEGLEWIGGLNPTSGGPVFNEKFKSKATLTVDTSSSTAYMQLSSLTSVDSAVYYCTRSLVRRGYYFDYWGQGTALTVSS
VL: DIQMTQTTSSLSASLGDRVTISCRASQDIQNYINWYQQKPDGTIKLLIYYTSRLHSGIPSRFSGSGSGTDYSLTIANLEQEDIATYFCQQDDTLPITFGAGTKVELKR
notes: as for B1
B15: Mutation 1-39 (antibody, V domains shown)
VH: QVQLQQPGAELVKPGASVRLSCQTSVNTFTTYYIYWVKQRPGEGLEWIGGINPTSGGPVFNEKFKSKATLTVDTSSSTAYMQLSSLTSVDSAVYYCTRSVLRRGYYFDYWGQGTALTVSS
VL: DIQMTQTTSSLSASLGDRVTISCRASQDINNYLNWYQQKPDGTIKLLIYYTSRLQSGVPSRFSGSGSGTDYSLTIANLEQEDIATYFCQQDDTVPLTFGAGTKVELKR
notes: as for B1
B16: Mutation 1-60 (antibody, V domains shown)
VH: QVQLQQPGAELVKPGASVRLSCQTSVNTFTTYYIYWVKQRPGEGLEWIGGVNPTSGGPVFNEKFKSKATLTVDTSSSTAYMQLSSLTSVDSAVYYCTRSLLRRGYYFDYWGQGTALTVSS
VL: DIQMTQTTSSLSASLGDRVTISCRASQDIQNYINWYQQKPDGTIKLLIYYTSRLHSGVPSRFSGSGSGTDYSLTIANLEQEDIATYFCQQDDTLPVTFGAGTKVELKR
notes: as for B1
B17: Mutation 1-46 (antibody, V domains shown)
VH: QVQLQQPGAELVKPGASVRLSCQTSVDTFSTYYIYWVKQRPGEGLEWIGGLNPTSGGPVFNEKFKSKATLTVDTSSSTAYMQLSSLTSVDSAVYYCTRSIVRRGYYFDYWGQGTALTVSS
VL: DIQMTQTTSSLSASLGDRVTISCRASQDIQNYINWYQQKPDGTIKLLIYYTSRLNSGIPSRFSGSGSGTDYSLTIANLEQEDIATYFCQQDDTIPITFGAGTKVELKR
notes: as for B1
B18: Mutation 1-30 (antibody, V domains shown)
VH: QVQLQQPGAELVKPGASVRLSCQTSVNTFSTYYIYWVKQRPGEGLEWIGGINPTSGGPVFNEKFKSKATLTVDTSSSTAYMQLSSLTSVDSAVYYCTRSVLRRGYYFDYWGQGTALTVSS
VL: DIQMTQTTSSLSASLGDRVTISCRASQDIQNYVNWYQQKPDGTIKLLIYYTSRLQSGVPSRFSGSGSGTDYSLTIANLEQEDIATYFCQQDDTVPLTFGAGTKVELKR
notes: Mutation 1 background; CDRs built; CDR-VL3 cell printed VL, read as V/L

T1 sequence (P19821 whole entry): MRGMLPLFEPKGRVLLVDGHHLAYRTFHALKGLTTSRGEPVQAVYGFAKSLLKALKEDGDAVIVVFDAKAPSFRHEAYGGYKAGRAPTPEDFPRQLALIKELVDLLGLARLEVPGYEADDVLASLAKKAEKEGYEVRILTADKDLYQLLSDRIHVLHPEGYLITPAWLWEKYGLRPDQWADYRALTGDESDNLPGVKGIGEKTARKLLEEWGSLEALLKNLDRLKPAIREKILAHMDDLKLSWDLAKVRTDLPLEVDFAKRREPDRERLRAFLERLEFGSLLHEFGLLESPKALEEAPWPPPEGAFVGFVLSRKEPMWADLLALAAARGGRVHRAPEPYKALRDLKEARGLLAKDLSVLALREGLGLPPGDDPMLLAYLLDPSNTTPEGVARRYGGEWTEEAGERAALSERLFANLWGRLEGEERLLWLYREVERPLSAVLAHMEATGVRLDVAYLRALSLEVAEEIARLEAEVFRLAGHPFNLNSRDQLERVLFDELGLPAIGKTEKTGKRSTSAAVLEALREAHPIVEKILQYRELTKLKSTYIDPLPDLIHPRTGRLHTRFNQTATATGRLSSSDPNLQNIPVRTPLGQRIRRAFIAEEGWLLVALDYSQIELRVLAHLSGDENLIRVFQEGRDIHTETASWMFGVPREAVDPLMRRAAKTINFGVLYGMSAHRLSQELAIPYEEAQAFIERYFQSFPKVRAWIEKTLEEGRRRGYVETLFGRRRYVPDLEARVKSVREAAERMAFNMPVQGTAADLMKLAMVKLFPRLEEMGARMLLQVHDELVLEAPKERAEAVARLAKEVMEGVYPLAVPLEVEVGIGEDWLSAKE

This assay concerns the target T1, Taq DNA polymerase (Thermus aquaticus, UniProt P19821 1-832).
T1 construct: also called Taq enzyme; Taq DNA enzyme
Kind of assay: AMC sensor, antibody immobilised.
As to B1, the Kd (as a rule, the concentration at which binding is half-saturated) turned out to be 0.223 nM; the dissociation rate constant (koff) (commonly the rate constant with which the complex falls apart) came to 1.45e-05 s⁻¹; the kon (usually the second-order rate constant of association) was found to be 65100 M⁻¹ s⁻¹.
Molecule B2 registered a Kd of 0.199 nM, a koff of 1.12e-05 s⁻¹ and a kon of 56400 M⁻¹ s⁻¹.
B3 yielded a Kd of 0.0314 nM, a koff of 1.13e-06 s⁻¹ and an on-rate (kon) of 36100 M⁻¹ s⁻¹.
With B4, binding was put at a Kd of 0.678 nM, the dissociation rate constant (koff) was 4.57e-05 s⁻¹ and the on-rate (kon) amounted to 67300 M⁻¹ s⁻¹.
The corresponding values for B5 are 0.852 nM, 2.89e-05 s⁻¹ and 34000 M⁻¹ s⁻¹.
On to B6, for which the dissociation constant (Kd) is 0.615 nM, the koff is 4.7e-05 s⁻¹ and the kon came out at 76400 M⁻¹ s⁻¹.
On to B7, for which binding was characterised by a dissociation constant (Kd) of 0.987 nM, the koff came out at 6.17e-05 s⁻¹ and the kon turned out to be 62600 M⁻¹ s⁻¹.
The corresponding values for B8 are 0.593 nM, 3.02e-05 s⁻¹ and 50800 M⁻¹ s⁻¹.
In turn, B9 yielded a Kd of 0.0664 nM, an off-rate (koff) of 5.96e-06 s⁻¹ and a kon of 89800 M⁻¹ s⁻¹.
The corresponding values for B10 are 0.85 nM, 5.38e-05 s⁻¹ and 63300 M⁻¹ s⁻¹.
Turning to B11, the affinity, expressed as Kd, was 0.384 nM; the koff was found to be 3.7e-05 s⁻¹; the on-rate constant (kon) is 97200 M⁻¹ s⁻¹.
The corresponding values for B12 are 0.913 nM, 6.41e-05 s⁻¹ and 70200 M⁻¹ s⁻¹.
Take B13: the affinity, expressed as Kd, was 0.281 nM; the dissociation rate constant (koff) turned out to be 8.8e-06 s⁻¹; the kon was 31300 M⁻¹ s⁻¹.
In turn, B14 returned a Kd of 0.698 nM, an off-rate constant (koff) of 2.37e-05 s⁻¹ and a kon of 34000 M⁻¹ s⁻¹.
The corresponding values for B15 are 0.457 nM, 2.2e-05 s⁻¹ and 48100 M⁻¹ s⁻¹.
The corresponding values for B16 are 0.0314 nM, 2.66e-06 s⁻¹ and 84600 M⁻¹ s⁻¹.
For the molecule B17, the Kd was found to be 0.655 nM, the koff was found to be 2.87e-05 s⁻¹ and the on-rate (kon) turned out to be 43800 M⁻¹ s⁻¹.
The corresponding values for B18 are 0.911 nM, 4.49e-05 s⁻¹ and 49300 M⁻¹ s⁻¹.
